From patent publication US20200199241A1 (Chugai, published 2020) come the findings set out here.

By Kd is commonly meant the equilibrium constant for the complex coming apart. High values mean lower affinity, low ones higher affinity.

The target of this experiment is T1, human FcRn (soluble human FcRn complexed with β2-microglobulin) (human, UniProt P61769 21-119, limits assumed).
T1 construct: also called hFcRn
The experiment in a line: SPR, pH 7.0.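 Further: antibodies captured on a Protein L sensor chip with human FcRn injected as analyte, KD calculated from fitted association and dissociation rate constants.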

T1 sequence (chain, as listed by the source limits assumed, chain 1 of 2): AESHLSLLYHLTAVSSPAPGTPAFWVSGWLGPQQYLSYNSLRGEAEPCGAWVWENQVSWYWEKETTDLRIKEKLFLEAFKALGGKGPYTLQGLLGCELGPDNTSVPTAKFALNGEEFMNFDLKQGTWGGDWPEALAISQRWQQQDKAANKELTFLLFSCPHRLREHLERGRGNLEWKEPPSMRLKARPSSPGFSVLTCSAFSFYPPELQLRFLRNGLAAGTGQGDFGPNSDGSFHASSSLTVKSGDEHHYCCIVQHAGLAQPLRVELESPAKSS
T1 sequence (P61769 21-119 limits assumed, chain 2 of 2): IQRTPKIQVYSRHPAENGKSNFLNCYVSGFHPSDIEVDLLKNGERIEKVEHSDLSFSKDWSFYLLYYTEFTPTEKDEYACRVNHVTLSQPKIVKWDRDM

B1: IgG1-F440 (antibody)
heavy: QVQLQESGPGLVKPSETLSLTCAVSGHSISHDHAWSWVRQPPGEGLEWIGFISYSGITNYNPSLQGRVTISRDNSKNTLYLQMNSLRAEDTAVYYCARSLARTTAMDYWGEGTLVTVSSASTKGPSVFPLAPSSKSTSGGTAALGCLVKDYFPEPVTVSWNSGALTSGVHTFPAVLQSSGLYSLSSVVTVPSSSLGTQTYICNVNHKPSNTKVDKKVEPKSCDKTHTCPPCPAPELLGGPSVFLFPPKPKDTLMISRTVEVTCVVVDVSHEDPEVKFNWYVDGVEVHEAKTKPREEQYNSTYRVVSVLQVLHADWLNGKEYKCKVSGKALPAPIEKTISKAKGQPREPQVYTLPPSRDELTKNQVSLTCLVKGFYPSDIAVEWESNGQPENNYKTTPPVLDSDGSFFLYSKLTVDKSRWQQGNVFSCSVLHEALHYHYTQKSLSLSP
light: not shown
notes: EU numbering; copies: 2 + 2
B1 registered a Kd of 15 nM. In other words, the double-digit nanomolar range.

B2: IgG1-F448 (antibody)
heavy: QVQLQESGPGLVKPSETLSLTCAVSGHSISHDHAWSWVRQPPGEGLEWIGFISYSGITNYNPSLQGRVTISRDNSKNTLYLQMNSLRAEDTAVYYCARSLARTTAMDYWGEGTLVTVSSASTKGPSVFPLAPSSKSTSGGTAALGCLVKDYFPEPVTVSWNSGALTSGVHTFPAVLQSSGLYSLSSVVTVPSSSLGTQTYICNVNHKPSNTKVDKKVEPKSCDKTHTCPPCPAPELLGGPSVFLFPPKPKDTLMISRTAEVTCVVVDVSHEDPEVKFNWYVDGVEVHEAKTKPREEQYNSTYRVVSVLAVLHQDWLNGKEYKCKVSNKALPAPIEKTISKAKGQPREPQVYTLPPSRDELTKNQVSLTCLVKGFYPSDIAVEWESNGQPENNYKTTPPVLDSDGSFFLYSKLTVDKSRWQQGNVFSCSVLHEALHYHYTQKSLSLSP
light: not shown
notes: EU numbering; copies: 2 + 2
The molecule B2 showed a Kd of 53 nM.

B3: IgG1-F446 (antibody)
heavy: QVQLQESGPGLVKPSETLSLTCAVSGHSISHDHAWSWVRQPPGEGLEWIGFISYSGITNYNPSLQGRVTISRDNSKNTLYLQMNSLRAEDTAVYYCARSLARTTAMDYWGEGTLVTVSSASTKGPSVFPLAPSSKSTSGGTAALGCLVKDYFPEPVTVSWNSGALTSGVHTFPAVLQSSGLYSLSSVVTVPSSSLGTQTYICNVNHKPSNTKVDKKVEPKSCDKTHTCPPCPAPELLGGPSVFLFPPKPKDTLMISRTAEVTCVVVDVSHEDPEVKFNWYVDGVEVHNAKTKPREEQYNSTYRVVSVLAVLHHDWLNGKEYKCKVSNKALPAPIEKTISKAKGQPREPQVYTLPPSRDELTKNQVSLTCLVKGFYPSDIAVEWESNGQPENNYKTTPPVLDSDGSFFLYSKLTVDKSRWQQGNVFSCSVLHEALHYHYTQKSLSLSP
light: not shown
notes: EU numbering; copies: 2 + 2
For the molecule B3, binding was characterised by a dissociation constant (Kd) of 110 nM.

B4: IgG1-F451 (antibody)
heavy: QVQLQESGPGLVKPSETLSLTCAVSGHSISHDHAWSWVRQPPGEGLEWIGFISYSGITNYNPSLQGRVTISRDNSKNTLYLQMNSLRAEDTAVYYCARSLARTTAMDYWGEGTLVTVSSASTKGPSVFPLAPSSKSTSGGTAALGCLVKDYFPEPVTVSWNSGALTSGVHTFPAVLQSSGLYSLSSVVTVPSSSLGTQTYICNVNHKPSNTKVDKKVEPKSCDKTHTCPPCPAPELLGGPSVFLFPPKPKDTLMISRTSEVTCVVVDVSHEDPEVKFNWYVDGVEVHNAKTKPREEQYNSTYRVVSVLAVLHQDWLNGKEYKCKVSNKALPAPIEKTISKAKGQPREPQVYTLPPSRDELTKNQVSLTCLVKGFYPSDIAVEWESNGQPENNYKTTPPVLDSDGSFFLYSKLTVDKSRWQQGNVFSCSVLHEALHYHYTQKSLSLSP
light: not shown
notes: EU numbering; copies: 2 + 2
For the molecule B4, binding was put at a Kd of 100 nM.

B5: IgG1-F452 (antibody)
heavy: QVQLQESGPGLVKPSETLSLTCAVSGHSISHDHAWSWVRQPPGEGLEWIGFISYSGITNYNPSLQGRVTISRDNSKNTLYLQMNSLRAEDTAVYYCARSLARTTAMDYWGEGTLVTVSSASTKGPSVFPLAPSSKSTSGGTAALGCLVKDYFPEPVTVSWNSGALTSGVHTFPAVLQSSGLYSLSSVVTVPSSSLGTQTYICNVNHKPSNTKVDKKVEPKSCDKTHTCPPCPAPELLGGPSVFLFPPKPKDTLMISRTMEVTCVVVDVSHEDPEVKFNWYVDGVEVHNAKTKPREEQYNSTYRVVSVLAVLHQDWLNGKEYKCKVSNKALPAPIEKTISKAKGQPREPQVYTLPPSRDELTKNQVSLTCLVKGFYPSDIAVEWESNGQPENNYKTTPPVLDSDGSFFLYSKLTVDKSRWQQGNVFSCSVLHEALHYHYTQKSLSLSP
light: not shown
notes: EU numbering; copies: 2 + 2
In turn, B5 displayed a Kd of 140 nM. The Kd values of the last two molecules are within 1.5-fold of each other.

B6: IgG1-F443 (antibody)
heavy: QVQLQESGPGLVKPSETLSLTCAVSGHSISHDHAWSWVRQPPGEGLEWIGFISYSGITNYNPSLQGRVTISRDNSKNTLYLQMNSLRAEDTAVYYCARSLARTTAMDYWGEGTLVTVSSASTKGPSVFPLAPSSKSTSGGTAALGCLVKDYFPEPVTVSWNSGALTSGVHTFPAVLQSSGLYSLSSVVTVPSSSLGTQTYICNVNHKPSNTKVDKKVEPKSCDKTHTCPPCPAPELLGGPSVFLFPPKPKDTLMISRTAEVTCVVVDVSHEDPEVKFNWYVDGVEVHNAKTKPREEQYNSTYRVVSVLQVLHADWLNGKEYKCKVSNKALPAPIEKTISKAKGQPREPQVYTLPPSRDELTKNQVSLTCLVKGFYPSDIAVEWESNGQPENNYKTTPPVLDSDGSFFLYSKLTVDKSRWQQGNVFSCSVLHEALHYHYTQKSLSLSP
light: not shown
notes: EU numbering; copies: 2 + 2
Consider B6, for which the Kd was determined as 55 nM.

B7: IgG1-F447 (antibody)
heavy: QVQLQESGPGLVKPSETLSLTCAVSGHSISHDHAWSWVRQPPGEGLEWIGFISYSGITNYNPSLQGRVTISRDNSKNTLYLQMNSLRAEDTAVYYCARSLARTTAMDYWGEGTLVTVSSASTKGPSVFPLAPSSKSTSGGTAALGCLVKDYFPEPVTVSWNSGALTSGVHTFPAVLQSSGLYSLSSVVTVPSSSLGTQTYICNVNHKPSNTKVDKKVEPKSCDKTHTCPPCPAPELLGGPSVFLFPPKPKDTLMISRTAEVTCVVVDVSHEDPEVKFNWYVDGVEVHEAKTKPREEQYNSTYRVVSVLQVLHQDWLNGKEYKCKVSNKALPAPIEKTISKAKGQPREPQVYTLPPSRDELTKNQVSLTCLVKGFYPSDIAVEWESNGQPENNYKTTPPVLDSDGSFFLYSKLTVDKSRWQQGNVFSCSVLHEALHYHYTQKSLSLSP
light: not shown
notes: EU numbering; copies: 2 + 2
The molecule B7 returned a Kd of 14 nM.

B8: IgG1-F449 (antibody)
heavy: QVQLQESGPGLVKPSETLSLTCAVSGHSISHDHAWSWVRQPPGEGLEWIGFISYSGITNYNPSLQGRVTISRDNSKNTLYLQMNSLRAEDTAVYYCARSLARTTAMDYWGEGTLVTVSSASTKGPSVFPLAPSSKSTSGGTAALGCLVKDYFPEPVTVSWNSGALTSGVHTFPAVLQSSGLYSLSSVVTVPSSSLGTQTYICNVNHKPSNTKVDKKVEPKSCDKTHTCPPCPAPELLGGPKVFLFPPKPKDTLYISRTPEVTCVVVDVSHEFPEVKFNWYVDGVEVHNAKTKPREEQYNSTYRVVSVLPVLHQDWLNGKEYKCKVSGKALPAPIEKTISKAKGQPREPQVYTLPPSRDELTKNQVSLTCLVKGFYPSDIAVEWESNGQPENNYKTTPPVLDSDGSFFLYSKLTVDKSRWQQGNVFSCSVYHEALHYHYTQKSLSLSP
light: not shown
notes: EU numbering; copies: 2 + 2
Molecule B8 had a Kd of 570 nM.

B9: IgG1-F441 (antibody)
heavy: QVQLQESGPGLVKPSETLSLTCAVSGHSISHDHAWSWVRQPPGEGLEWIGFISYSGITNYNPSLQGRVTISRDNSKNTLYLQMNSLRAEDTAVYYCARSLARTTAMDYWGEGTLVTVSSASTKGPSVFPLAPSSKSTSGGTAALGCLVKDYFPEPVTVSWNSGALTSGVHTFPAVLQSSGLYSLSSVVTVPSSSLGTQTYICNVNHKPSNTKVDKKVEPKSCDKTHTCPPCPAPELLGGPSVFLFPPKPKDTLMISRTAEVTCVVVDVSHEDPEVKFNWYVDGVEVHNAKTKPREEQYNSTYRVVSVLTVLHADWLNGKEYKCKVSNKALPAPIEKTISKAKGQPREPQVYTLPPSRDELTKNQVSLTCLVKGFYPSDIAVEWESNGQPENNYKTTPPVLDSDGSFFLYSKLTVDKSRWQQGNVFSCSVLHEALHYHYTQKSLSLSP
light: not shown
notes: EU numbering; copies: 2 + 2
B9 gave a Kd of 180 nM.

B10: IgG1-F442 (antibody)
heavy: QVQLQESGPGLVKPSETLSLTCAVSGHSISHDHAWSWVRQPPGEGLEWIGFISYSGITNYNPSLQGRVTISRDNSKNTLYLQMNSLRAEDTAVYYCARSLARTTAMDYWGEGTLVTVSSASTKGPSVFPLAPSSKSTSGGTAALGCLVKDYFPEPVTVSWNSGALTSGVHTFPAVLQSSGLYSLSSVVTVPSSSLGTQTYICNVNHKPSNTKVDKKVEPKSCDKTHTCPPCPAPELLGGPSVFLFPPKPKDTLMISRTAEVTCVVVDVSHEDPEVKFNWYVDGVEVHNAKTKPREEQYNSTYRVVSVLTVLHHDWLNGKEYKCKVSNKALPAPIEKTISKAKGQPREPQVYTLPPSRDELTKNQVSLTCLVKGFYPSDIAVEWESNGQPENNYKTTPPVLDSDGSFFLYSKLTVDKSRWQQGNVFSCSVLHEALHYHYTQKSLSLSP
light: not shown
notes: EU numbering; copies: 2 + 2
Take B10: the Kd turned out to be 200 nM.

B11: IgG1-F453 (antibody)
heavy: QVQLQESGPGLVKPSETLSLTCAVSGHSISHDHAWSWVRQPPGEGLEWIGFISYSGITNYNPSLQGRVTISRDNSKNTLYLQMNSLRAEDTAVYYCARSLARTTAMDYWGEGTLVTVSSASTKGPSVFPLAPSSKSTSGGTAALGCLVKDYFPEPVTVSWNSGALTSGVHTFPAVLQSSGLYSLSSVVTVPSSSLGTQTYICNVNHKPSNTKVDKKVEPKSCDKTHTCPPCPAPELLGGPSVFLFPPKPKDTLMISRTNEVTCVVVDVSHEDPEVKFNWYVDGVEVHNAKTKPREEQYNSTYRVVSVLAVLHQDWLNGKEYKCKVSNKALPAPIEKTISKAKGQPREPQVYTLPPSRDELTKNQVSLTCLVKGFYPSDIAVEWESNGQPENNYKTTPPVLDSDGSFFLYSKLTVDKSRWQQGNVFSCSVLHEALHYHYTQKSLSLSP
light: not shown
notes: EU numbering; copies: 2 + 2
The molecule B11 gave a Kd of 78 nM. This Kd lies about 2.6-fold lower than the previous one.

B12: IgG1-F444 (antibody)
heavy: QVQLQESGPGLVKPSETLSLTCAVSGHSISHDHAWSWVRQPPGEGLEWIGFISYSGITNYNPSLQGRVTISRDNSKNTLYLQMNSLRAEDTAVYYCARSLARTTAMDYWGEGTLVTVSSASTKGPSVFPLAPSSKSTSGGTAALGCLVKDYFPEPVTVSWNSGALTSGVHTFPAVLQSSGLYSLSSVVTVPSSSLGTQTYICNVNHKPSNTKVDKKVEPKSCDKTHTCPPCPAPELLGGPSVFLFPPKPKDTLMISRTAEVTCVVVDVSHEDPEVKFNWYVDGVEVHNAKTKPREEQYNSTYRVVSVLAVLHADWLNGKEYKCKVSNKALPAPIEKTISKAKGQPREPQVYTLPPSRDELTKNQVSLTCLVKGFYPSDIAVEWESNGQPENNYKTTPPVLDSDGSFFLYSKLTVDKSRWQQGNVFSCSVLHEALHYHYTQKSLSLSP
light: not shown
notes: EU numbering; copies: 2 + 2
In the case of B12, the Kd is 140 nM.
